Measured values: patent US20190270826A1
Where “and” joins values, the source holds several entries; their conditions need not be identical. Equal values may be shown once.

Key:
[1] = biological target: recombinant human IL1RAP ECD (human) (UniProt Q9NPH3); test: SPR (ProteOn)
human FcRn (human) = human FcRn (human) (UniProt P55899); test: AlphaScreen competition, human FcRn (n=1); displaced: biotinylated control mAb B21M WT IgG1 (m27); pH 6.0
human FcγRI (human) = human FcγRI (human) (UniProt P12314); test: AlphaScreen competition, human FcγRI (n=1); displaced: biotinylated control mAb B21M hIgG1 AlaAla; pH 7.2
Sequence of human FcγRI (human) (P12314 16-292 limits assumed): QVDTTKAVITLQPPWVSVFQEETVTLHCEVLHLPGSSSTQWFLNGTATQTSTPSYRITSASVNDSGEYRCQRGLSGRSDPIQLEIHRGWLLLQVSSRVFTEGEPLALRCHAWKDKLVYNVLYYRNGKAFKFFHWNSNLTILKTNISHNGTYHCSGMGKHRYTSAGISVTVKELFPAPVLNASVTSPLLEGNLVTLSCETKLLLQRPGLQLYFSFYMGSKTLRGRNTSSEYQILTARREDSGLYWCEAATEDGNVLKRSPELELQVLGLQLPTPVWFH

Sequence of recombinant human IL1RAP ECD (human) (Q9NPH3 other isoform, or with tags, fused parts or gaps): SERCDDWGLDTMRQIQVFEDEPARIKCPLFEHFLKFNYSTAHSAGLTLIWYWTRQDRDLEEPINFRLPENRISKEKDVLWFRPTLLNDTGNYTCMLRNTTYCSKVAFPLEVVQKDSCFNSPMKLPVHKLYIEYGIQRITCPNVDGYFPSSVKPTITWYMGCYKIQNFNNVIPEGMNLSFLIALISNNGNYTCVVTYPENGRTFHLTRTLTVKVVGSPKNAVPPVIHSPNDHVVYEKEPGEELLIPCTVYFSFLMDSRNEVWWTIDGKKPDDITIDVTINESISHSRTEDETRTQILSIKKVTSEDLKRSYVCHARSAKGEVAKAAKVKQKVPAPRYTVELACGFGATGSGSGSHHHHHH
Sequence of human FcRn (human) (P55899 24-297 limits assumed, form in doubt, chain 1 of 2): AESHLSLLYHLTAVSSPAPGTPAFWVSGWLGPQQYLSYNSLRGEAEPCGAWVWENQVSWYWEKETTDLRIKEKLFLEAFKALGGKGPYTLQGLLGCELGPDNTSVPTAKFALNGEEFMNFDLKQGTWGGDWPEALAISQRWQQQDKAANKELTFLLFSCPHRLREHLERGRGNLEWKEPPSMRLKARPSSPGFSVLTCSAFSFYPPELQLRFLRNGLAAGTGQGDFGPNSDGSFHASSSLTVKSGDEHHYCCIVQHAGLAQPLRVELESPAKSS
Sequence of human FcRn (human) (chain, as listed by the source limits assumed, form in doubt, chain 2 of 2): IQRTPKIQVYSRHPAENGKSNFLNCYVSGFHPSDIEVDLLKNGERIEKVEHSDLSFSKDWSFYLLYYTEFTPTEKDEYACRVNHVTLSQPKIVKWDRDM

| Substance | Kd [1] | koff [1] | kon [1] | IC50 (read off the curve) (human FcRn (human)) [nM] | IC50 (read off the curve) (human FcγRI (human)) [nM] |
| --- | --- | --- | --- | --- | --- |
| anti-human/cyno IL1RAP, mouse IgG1, R&D #MAB676 (antibody) | 1.42 nM and 1.21 nM | 0.000369 s⁻¹ and 0.000336 s⁻¹ | 260000 M⁻¹ s⁻¹ and 277000 M⁻¹ s⁻¹ | – | – |
| Human IgG4-PAA isotype control (antibody) | – | – | – | 200 | – |
| wild type hIgG1 (antibody) | – | – | – | 90 | 3 |
